Publication PMC6953117

Target: giantin-WT-GFP (UniProt Q14789)
Assay: atomic force microscopy (particle volumes); giantin-GFP isolated with GFP-Trap Magnetic Agarose from DMSO- or BFA-treated HeLa cells (lysate with NEM), treated with 2% β-mercaptoethanol, deposited on mica, tapping mode in air; volumes by the spherical cap model, Gaussian fit of the …
Settings: remark: other sources report otherwise

giantin-WT-GFP, Q14789 1-3259
percent of particles in the dimer peak (BFA-treated cells): 10% | percent of particles in the dimer peak (DMSO-treated cells): 27% | stoichiometry N: 2
